# Assay results: patent publication US5218092A, “Modified granulocyte-colony stimulating factor polypeptide with added carbohydrate chains” (Kyowa Hakko Kogyo Co., Ltd., priority 1988, dated 1993)
# What was measured:
# thrombin = details: cited from earlier work
# fibrin = details: cited from earlier work
# plasminogen in blood = details: in vivo; cited from earlier work
# [1] = cited from earlier work; for site of clearance: sialic acid-containing or after sialic acid elimination
# [2] = no carbohydrate chain; cited from earlier work
# [3] = no carbohydrate chain; cited from earlier work; remark: listed apart in the source
# plasmin = details: cited from earlier work
# [4] = rat plasma and rat perfusate; cited from earlier work
# chymotrypsin = experiment: proteolysis susceptibility of hG-CSF and hG-CSF[ND28] produced in Escherichia coli; type: in vitro ADME
# Text: Analysis of hG-CSF and the hG-CSF derivative hG-CSF[ND 28] […] On the basis of the above findings, it is estimated that, in hG-CSF[ND28], a portion close to the N terminus and a portion in the vicinity of the 144th (from the N terminus) amino acid are found on the polypeptide surface. Therefore, an attempt was made to add a carbohydrate chain to hG-CSF[ND28] on the 6th or 145th (from the N terminus) amino acid residue thereof. An hG-CSF[ND28] derivative which has a carbohydrate chain addition site on the 6th (from the N terminus) amino acid residue is hG-CSF[ND28N6] and a derivative which has a carbohydrate chain addition site on the 145th (from the N terminus) amino acid residue is hG-CSF[ND28N145]. In these cases, it is expected that the carbohydrate chain addition can result in development of protease resistance. Retardation of blood clearance can also be expected as a result of stabilization of the polypeptide.
molecule,measurement,setting,value
Urokinase,conversion under the action of thrombin,thrombin,converted to an inactive form upon exposure to a protease called thrombin
same,affinity for fibrin,fibrin,no affinity for fibrin
same,systemic hyperfibrinolysis / bleeding tendency,plasminogen in blood,causing systemic hyperfibrinolysis and leading to a bleeding tendency
hGM-CSF after sialic acid elimination: hGM-CSF after sialic acid elimination,rate of clearance,[1]; after sialic acid elimination,increased rate of clearance
same,site of clearance,[1],undergoes clearance in the liver
hGM-CSF: human granulocyte macrophage colony stimulating factor (hGM-CSF),rate of clearance from the rat plasma,[1]; dependence on number of carbohydrate chains,the rate of clearance from the rat plasma increases in proportion to the reduction in the number of carbohydrate chains
human erythropoietin: human erythropoietin produced in Escherichia coli or enzymatically treated for carbohydrate chain elimination,activity in vivo,[2],shows decreased activity in vivo
same,clearance,[2],undergoes rapid clearance
same,activity in vitro,[3],shows activity in vitro
sialic acid-containing hGM-CSF: sialic acid-containing hGM-CSF,site of clearance,[1],undergoes clearance in the kidney
streptokinase: thrombolytic agent,affinity for fibrin,fibrin,no affinity for fibrin
same,systemic hyperfibrinolysis / bleeding tendency,plasminogen in blood,causing systemic hyperfibrinolysis and leading to a bleeding tendency
t-PA: tissue plasminogen activator (t-PA),conversion under the action of plasmin,plasmin,Plasmin converts the single-chainform to the double-chain form
same,affinity for fibrin,fibrin,have affinity for fibrin
"α1 -acid glycoproteins: α1 -acid glycoproteins differing in carbohydrate structure as biosynthesized in a rat liver primary culture system (protein, UniProt P02764 19-205, looked up, glycoform mixture, α1 -acid glycoproteins differing in carbohydrate structure as biosynthesized in a rat liver primary culture system) Alpha-1-acid glycoprotein: QNPEPANITLGIPITNETLKWLSDKWFYMGAAFRDPVFKQAVQTIQTEYFYLTPNLINDTIELREFQTTDDQCVYNFTHLGVQRENGTLSKCAGAVKIFAHLIVLKKHGTFMLAFNLTDENRGLSFYAKKPDLSPELRKIFQQAVKDVGMDESEIVFVDWTKDKCSEQQKQQLELEKETKKETKKDP",order of clearance rates,[4],high mannose type>carbohydrate chain-deficient type>hybrid type>complex type (natural form)
"hG-CSF: human granulocyte colony stimulating factor (hG-CSF) (protein, UniProt P09919 31-207, looked up) Granulocyte …: TPLGPASSLPQSFLLKCLEQVRKIQGDGAALQEKLVSECATYKLCHPEELVLLGHSLGIPWAPLSSCPSQALQLAGCLSQLHSGLFLYQGLLQALEGISPELGPTLDTLQLDVADFATTIWQQMEELGMAPALQPTQGAMPAFASAFQRRAGGVLVASHLQSFLEVSYRVLRHLAQP",susceptibility to proteolysis by chymotrypsin behind 144th amino acid Phe,chymotrypsin,susceptible to proteolysis by chymotrypsin
